# Assay: yeast display, Sf9 membrane polyspecificity reagent, FACS + sequencing; frameworks hold sequencing errors
# In short: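 Nanobodies from a synthetic yeast display library (Saccharomyces cerevisiae BJ5465), induced 36–48 hours with galactose, were stained 1 hour at 4 °C with 10% biotinylated, detergent-solubilized Sf9 membrane reagent, enriched on streptavidin microbeads, then FACS-sorted. Anti-HA (expression) and streptavidin (reagent binding) fluorescence set low and high (top ~1%) gates. Polyreactivity labels come from the gate of origin. Genes were colony-PCR amplified, MiSeq 2 × 250 sequenced and filtered by CDR length.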
row,Sequence,polyreactivity (PSR sort gate)
1,QVQLVESGGGLVQAGGSLRLICAASGSIFIRNAMGWYRQAPGKERELVAAITSRGGSTYYADSVKGRFTISRDNAKNTVFLQMNSLKPEDTAVYYCARRYYGLYDYWGQGTQVTVSS,low polyreactivity
2,QVQLVESGGGLVQAGGSLRLICAASGSIFISYAMGWYRQAPGKERELVAAISSGGSTNYADSVKGRFTISRDNAKNTVYLQMNSLKPEDTAVYYCAADGWLWSFTGDGWWFDYWGQGTQVTVSS,low polyreactivity
3,QVQLVESGGGLVQAGGSLRLICAASGSIFNGYVMGWYRQAPGKERELVAAISSGGRTYYADSVKGRFTISRDNAKNTVYLQMNSLKPEDTAVYYCAADIWYFDYDYWGQGTQVTVSS,high polyreactivity
4,QVQLVESGGGLVQAGGSLRLICAASGSIFPPYAMGWYRQAPGKDREFVAAITISGDSTYYADSVKGRFTISRDNAKNTVYLQMNSLKPEDTAVYYCNADSYAFQYTWGEAYYGLYGYWGQGTQVTVSS,low polyreactivity
5,QVQLVESGGGLVQAGGSLRLICAASGSIFRFYAMGWYRQAPGTERELVAAISKTGGRTYYADSVKGRFTISRDNAKNTFYLQMNSLKPEDTAVYYCAASIREGFYWGQGTQVTVSS,high polyreactivity
6,QVQLVESGGGLVQAGGSLRLICAASGSIFRIYAMGWYRQAPGKEREFVAAISRRGGSTYYADSVKGRFTISRDNAKNTVYLQMNSLKPEDTAVYYCAASGGGSDAYWGQGTQVTVSS,high polyreactivity
7,QVQLVESGGGLVQAGGSLRLICAASGSIFSVNTMGWYREAPGKERELVATIRTGDSTNYADSVKGRFTISRDNAKNTVYLQMNSLKPEDTAVYYCAAEWSSLNFDYWGQGTQVTVSS,low polyreactivity
8,QVQLVESGGGLVQAGGSLRLICAASGSIFTVYAMGWYRQAPGKERELVADIDYGGTYYADSVKGRFTISRDNAKNTVYLQMNSLKPEDTAVYYCAALAALDYGQLYLDDDDYWGQGTQVTVSS,low polyreactivity
9,QVQLVESGGGLVQAGGSLRLICAASGSIFVYNAMGWYRQAPGKERELVAAISYSGGRTYYADSVKGRFTISRDNAKNTVYLQMNSLKPEDTAVYYCAARSQRHKLSREYNYWGQGTQVTVSS,high polyreactivity
10,QVQLVESGGGLVQAGGSLRLICAASGSIFYYYAMGWYRQAPGKERELVATITWNGAGTFYADSVKGRFTISRDNAKNTVYLQMNSLKPEDTSVYYCAASWYGESGYEYWGQGTQVTVSS,low polyreactivity
11,QVQLVESGGGLVQAGGSLRLICAASGSIIAINVMGWYRQAPGKEREFVAAISVRSGSTYYADSVKGRFTISRDNAKNTVYLQMNSLKPEDTAVYYCAARTSRFWRGGGLDYWGQGTQVTVSS,high polyreactivity
12,QVQLVESGGGLVQAGGSLRLICAASGSISYEYAMGWYRQAPGKERELVASIDSDGAGTYYADSVKGRFTISLDNAKNTVYLQMNSLKPEDTAVYYCNSEWYYPYYYSRMDYWGQGTQVTVSS,low polyreactivity
13,QVQLVESGGGLVQAGGSLRLICAASGSIYYSYGMGWYRQAPGKERELVAAITSSGGGTYYADSVKGRFTISRDNAKNTFYLQMNSLKPEDTAVYYCAADDRNYNYYPTFYYWGQGTQVTVSS,low polyreactivity
14,QVQLVESGGGLVQAGGSLRLICAASGSNFWGNTMGWYRQAPGKERELVATISRRGGSTNYADSVKGRFTISRDNAKNTVYLQMNSLKPEDTAVYYCAAVTIYRSYRGNPYYYWGQGTQVTVSS,high polyreactivity
15,QVQLVESGGGLVQAGGSLRLICAASGSTFAYYVMGWYRPAPGTEREFVATITGSGGRTYYADSVKGRFTISRDNAKNTVYLQMISLKPEDTAVYYCAAGVYTGQHEYDYWGQGTQVTVSS,low polyreactivity
16,QVQLVESGGGLVQAGGSLRLICAASGSTFERYAMGWYRQAPGKERELVAAIDSRSGSTSYADSVKGRFTISRDNAKNTVYLQMNSLKPEDTAVYYCAKDYYRPWYDRPLGYDYWGQGTQVTVSS,low polyreactivity
17,QVQLVESGGGLVQAGGSLRLICAASGSTFGRYAMGWYRQAPGKERELVARISWGGGSTYYADSVKGRFTISRDNAKNTVYLQMYSLKPEDTAVYYCATRVYRSAVSYDYWGQGTQVTVSS,high polyreactivity
18,QVQLVESGGGLVQAGGSLRLICAASGSTFGTYAMGWYRQAPGKERELVAAISWSGGSTYYADSVKGRFTISRDNAKNTVYLQMNSLQPEDTAVYWGQGTQVTVSS,low polyreactivity
19,QVQLVESGGGLVQAGGSLRLICAASGSTFGVNAMGWYRQAPGKERELVAAITQSGGSTFYADSVKGRFTISRDKAKNTVYLQMNSLKPEDTAVYYWGQGTQVTVSS,low polyreactivity
20,QVQLVESGGGLVQAGGSLRLICAASGSTFIWNSMGWYRQAPGKERELGATITGSGDRTTYADSVKGRFTISRDNAKNTVYLQMNSLKPEDTAVYYCAGDAYRWWVRYDYWGQGTQVTVSS,low polyreactivity
21,QVQLVESGGGLVQAGGSLRLICAASGSTFKTYAMGWYRQAPGQEREFVASISGSGGSTSYADSVKGRFTISRDNAKNTVYLQMNSLKPEDTAVYYCAARLQKPTIGKGVYYWGQGTLVTVSS,high polyreactivity
22,QVQLVESGGGLVQAGGSLRLICAASGSTFLTNVMGWYRQAPGKERELVAAISRGGGRTYYADSVKGRFTISRDNAKNTVYLQMNSLKPEDTAVYYCNAVDASHAGPVGGAFRYDYWGQGTQVTVSS,high polyreactivity

row,Sequence,polyreactivity (PSR sort gate)
1,QVQLVESGGGLVQAGGSLRLICAASGSTFPPNAMGWYRQAPGKERELVAAISKRGGSTTYSDSVKGRFTISRDYAKNTVYLQMNSLIPEDTAVYYCAARRSGRSHYEKMDYWGQGTQVSVSS,low polyreactivity
2,QVQLVESGGGLVQAGGSLRLICAASGSTFPRNAMGWYRQAPGKERELVATITSSGGGTYYADSVKGRFTISRDNAMNTVYLQMNSLKPEDTAVYYCNADGPAGDAFDYWGQGTQVTVSS,low polyreactivity
3,QVQLVESGGGLVQAGGSLRLICAASGSTFSSNAMAWFRQAPGKERELVAAIDRGGSTNYADSVKGRFTISRDNAKNTVYFQMNCLKAEDTAVYYCKAERVTYDTGRAVLPGGYWGQGTQVTVSS,low polyreactivity
4,QVQLVESGGGLVQAGGSLRLICAASGSTFVVNAMGWYRQAPGKERELVAAIRNSGSTTYADSVKGRFTISRDNAKNTVYLQMNSLKPEDTAVYYCATDFSATVTAVQINPYDYWGQGTQVTVSS,low polyreactivity
5,QVQLVESGGGLVQAGGSLRLICAASGSTFYDNTMGWYRQAPGKERELVAAISSGGGTYYADSVKGRFTISRDNAKNTVYLQMNSLKPEDTSVYYCNADQTAYGKPGRAYGFDYWGQGTQVTVSS,low polyreactivity
6,QVQLVESGGGLVQAGGSLRLICAASGSTLPGYVKGWYRQAPGKERELVAAITKSGGSTYYADSVKGRFTISRDNAKNTVYLQMNSLKPEDTAVYYCAVGVKAQIAGDYWGQGTQVTVSS,low polyreactivity
7,QVQLVESGGGLVQAGGSLRLICAASGSTQSPYAMGWYRQAPGKERDFVAAISTSGVSTYYADSVKGRFTISRDNAKNTVDLQMNSLKPVDTAVYYCATRYYIYGSTLKLYDYWGQGTQVTVSS,high polyreactivity
8,QVQLVESGGGLVQAGGSLRLICAASGSTQVYYAMGWYRQAPGKETELVASINHSGARTRYADSVKGRFTISRDNAKNTVYLQMNSLKPEVTAVYYCAAVARSTTYRYNYWGQGTQVTVSS,high polyreactivity
9,QVQLVESGGGLVQAGGSLRLICAASGSTRRYVMGWYRQAPGKERELVAVISRGGSTYYADSVKGRFTISRDNAKNTVYLQMNSLKPEDTAVYYCNVQPVIPRGGDYWGQGTQVTVSS,high polyreactivity
10,QVQLVESGGGLVQAGGSLRLICAASGSTSPYYTRGWYRQAPGKERELVASINESGGSTYYADSVKARFTISRDNAKNTVYLQMHTLKPEDTAGYNCNAEYTTPSYPVYSIDYYWFDYWGQGTQVTVSS,low polyreactivity
11,QVQLVESGGGLVQAGGSLRLICAASGYIFRDYAMGWYRQAPGKERELVATISSGGSTSYADSVKGRFTISRDNAKNTVYLQMNSLKPEDTAVYYCAADVANTSAEYYYWGQGTQVTVSS,low polyreactivity
12,QVQLVESGGGLVQAGGSLRLICAASGYIFRPNAMGWYRQAPGKERELVASISSGGSTYYADSVKGRFTISRDNAKNTVYLQMNSLKPEDTAVYYCNARHYPWFAAYGSYAYEYWGQGTQVTVSS,low polyreactivity
13,QVQLVESGGGLVQAGGSLRLICAASGYTFPRYTMGWYRQAPGKERELVAAITSSGSTNYADSVKGRFTISRDNAKNTVYLQMNCLKPEDTAVYYCATLYRDWWSGYLEVDYWGQGTQVTVSS,high polyreactivity
14,QVQLVESGGGLVQAGGSLRLICAASGYTFTGYAMGWYRQAPGKEREFVAGITWRTGRTYYADSVNGRFTISRDNAKNTVYLQMNSLKPEDTAVYYCAAVPWKRYDYYTPFARGYWGQGTQVTVSS,low polyreactivity
15,QVQLVESGGGLVQAGGSLRLICAASGYTLATYTMRWYIQAPGKERELVAAISFGGSTYYADSVKGRFTISRDNAKNTVYLQMNSLKPEDTAVYYCAVYGDSYWGAYYYSDGYWGQGTQVTVSS,low polyreactivity
16,QVQLVESGGGLVQAGGSLRLICAASRFTYYRNVMGWYRQAPGKERELVAPISRRGDRTYADSVKGRFTISRDNAKNTVYLQMNSLKPEDTAVYYFAPTPYSYWTRYYYWGQGTQVTVTS,high polyreactivity
17,QVQLVESGGGLVQAGGSLRLICAATGFTFLFYDMGWYRQAPGKERALVAASTSDGSTYYADSVKGRFTISRDNAKNTVYLQMNSLKPEDTAVYYCNADEPDEAYLYQSDYWGQGTQVTVSS,low polyreactivity
18,QVQLVESGGGLVQAGGSLRLICADSGRIFNRYAMGWYRQAPGKEREFVAGITWNGGSTYYADSVKGRFTISRDNSKNTVNLQMNSLKPEDTAVYYCAATHYYYGTSRYDYWGQGTQVTVSS,high polyreactivity
19,QVQLVESGGGLVQAGGSLRLICADSGSTFSPNGMGWYTQAHGKERELVAAITSVGSTYYAESVEGRFTISRDNELNTVYFQMNSLQPVDTAVFYCAKGQRDSEEYDYWGQGTQVTVSS,low polyreactivity
20,QVQLVESGGGLVQAGGSLRLICDASGLTFIRNAMGCYRQATGKERELVAAITRRGGSTYYADSVKGRFTISRDNAKNTVYLQMHSLQPEDTPVDYCARRLYPSASYDYDYWGQGTQETVSS,high polyreactivity
21,QVQLVESGGGLVQAGGSLRLICYASGSIFWVYAMGWYRQAPGKEWELVADIRYRDGSTHYADSVKGRFTISRDNAKNTVYLQMNSLKPEDTAVYYCAADDLPSTGYDYWGPGTQVTVSS,low polyreactivity

# Source: the nanobody polyreactivity screen of Harvey et al. (2022)
